# Data taken from patent publication US20220308072A1.
# Tests used:
# [1] = molecular target: Recombinant, his tagged full length human frataxin protein (Abcam ab95502) (human) (UniProt Q16595); experiment: Simoa sandwich 3-step; capture Ab-5
# [2] = molecular target: Recombinant, his tagged full length human frataxin protein (Abcam ab95502) (human) (UniProt Q16595); experiment: Simoa sandwich 2-step; capture Ab-1
# [3] = molecular target: Recombinant, his tagged full length human frataxin protein (Abcam ab95502) (human) (UniProt Q16595); experiment: Simoa sandwich 3-step; capture Ab-1
# [4] = molecular target: Recombinant, his tagged full length human frataxin protein (Abcam ab95502) (human) (UniProt Q16595); experiment: Simoa sandwich 3-step; capture Ab-1; frataxin 100 pg/mL
# [5] = molecular target: Recombinant, his tagged full length human frataxin protein (Abcam ab95502) (human) (UniProt Q16595); experiment: Simoa sandwich 2-step; capture Ab-4; frataxin 100 pg/mL
# [6] = molecular target: Recombinant, his tagged full length human frataxin protein (Abcam ab95502) (human) (UniProt Q16595); experiment: Simoa sandwich 3-step; capture Ab-1; frataxin 100 pg/mL; remark: listed apart in the source
# [7] = molecular target: Recombinant, his tagged full length human frataxin protein (Abcam ab95502) (human) (UniProt Q16595); experiment: Simoa sandwich 3-step; capture Ab-2; frataxin 1000 pg/mL
# [8] = molecular target: Recombinant, his tagged full length human frataxin protein (Abcam ab95502) (human) (UniProt Q16595); experiment: Simoa sandwich 2-step; capture Ab-1; frataxin 1000 pg/mL
# [9] = molecular target: Recombinant, his tagged full length human frataxin protein (Abcam ab95502) (human) (UniProt Q16595); experiment: Simoa sandwich 3-step; capture Ab-1; frataxin 1000 pg/mL
# [10] = molecular target: Recombinant, his tagged full length human frataxin protein (Abcam ab95502) (human) (UniProt Q16595); experiment: Simoa sandwich 2-step; capture Ab-1; frataxin 6.17 pg/mL
# [11] = molecular target: Recombinant, his tagged full length human frataxin protein (Abcam ab95502) (human) (UniProt Q16595); experiment: Simoa sandwich; capture Ab-1; no helper beads; frataxin 500 pg/mL
# [12] = molecular target: Recombinant, his tagged full length human frataxin protein (Abcam ab95502) (human) (UniProt Q16595); experiment: Simoa sandwich 2-step; capture Ab-1; 50 pM SβG; frataxin 55.6 pg/mL
# [13] = molecular target: Recombinant, his tagged full length human frataxin protein (Abcam ab95502) (human) (UniProt Q16595); experiment: Simoa sandwich 2-step (35 min-5 min); capture Ab-1; with helper beads
# [14] = molecular target: Recombinant, his tagged full length human frataxin protein (Abcam ab95502) (human) (UniProt Q16595); experiment: Simoa sandwich 2-step (35 min-5 min); capture Ab-1; with helper beads; frataxin 167 pg/mL
# [15] = molecular target: Recombinant, his tagged full length human frataxin protein (Abcam ab95502) (human) (UniProt Q16595); experiment: Simoa sandwich 2-step (35 min-5 min); capture Ab-1; with helper beads; frataxin 2.06 pg/mL
# [16] = molecular target: Recombinant, his tagged full length human frataxin protein (Abcam ab95502) (human) (UniProt Q16595); experiment: Simoa sandwich 2-step (120 min-5 min); capture Ab-1; Diluent 1 + 5% NCS; frataxin 200 pg/mL
# [17] = molecular target: Recombinant, his tagged full length human frataxin protein (Abcam ab95502) (human) (UniProt Q16595); experiment: Simoa sandwich 2-step (120 min-5 min); capture Ab-1; Diluent 1 + 5% NCS; frataxin 111 pg/mL
# [18] = molecular target: Recombinant, his tagged full length human frataxin protein (Abcam ab95502) (human) (UniProt Q16595); experiment: Simoa sandwich 2-step (120 min-5 min); capture Ab-1; Diluent 1 + 5% NCS; frataxin 333 pg/mL
# [19] = molecular target: Recombinant, his tagged full length human frataxin protein (Abcam ab95502) (human) (UniProt Q16595); experiment: Simoa sandwich 2-step (120 min-5 min); capture Ab-1; Diluent 1 + 5% NCS; frataxin 22.2 pg/mL
# [20] = molecular target: Recombinant, his tagged full length human frataxin protein (Abcam ab95502) (human) (UniProt Q16595); experiment: Simoa sandwich 2-step (120 min-5 min); capture Ab-1; Diluent 1 + 5% NCS; frataxin 1.37 pg/mL
# [21] = molecular target: Recombinant, his tagged full length human frataxin protein (Abcam ab95502) (human) (UniProt Q16595); experiment: Simoa sandwich 2-step (120 min-5 min); capture Ab-1; Diluent 1 + 5% NCS; frataxin 37.0 pg/mL
# [22] = molecular target: Recombinant, his tagged full length human frataxin protein (Abcam ab95502) (human) (UniProt Q16595); experiment: Simoa sandwich 2-step (120 min-5 min); capture Ab-1; Diluent 1 + 5% NCS; frataxin 0.823 pg/mL
# [23] = molecular target: Recombinant, his tagged full length human frataxin protein (Abcam ab95502) (human) (UniProt Q16595); experiment: Simoa sandwich 2-step (120 min-5 min); capture Ab-1; Diluent 1 + 10% NCS; frataxin 12.3 pg/mL
# [24] = molecular target: Recombinant, his tagged full length human frataxin protein (Abcam ab95502) (human) (UniProt Q16595); experiment: Simoa sandwich 2-step (120 min-5 min); capture Ab-1; Diluent 1 + 10% NCS; frataxin 0.274 pg/mL
# [25] = molecular target: Recombinant, his tagged full length human frataxin protein (Abcam ab95502) (human) (UniProt Q16595); experiment: Simoa sandwich 2-step (120 min-5 min); capture Ab-1; Diluent 1 + 10% NCS; frataxin 0.823 pg/mL
# Chain of UniProt Q16595 (Q16595 42-210): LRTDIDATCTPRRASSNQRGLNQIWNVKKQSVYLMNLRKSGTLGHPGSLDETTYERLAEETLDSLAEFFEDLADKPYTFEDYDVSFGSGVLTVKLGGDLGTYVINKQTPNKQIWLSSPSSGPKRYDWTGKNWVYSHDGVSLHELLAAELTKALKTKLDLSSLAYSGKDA
substance,measurement,setting,value
"Ab-3, mouse monoclonal [18A5DB1] to Frataxin (Abcam ab110328) (antibody)",LOD,[1],1.73 pg/mL
same,LOD,[2],0.27 pg/mL
same,LOD,[3],0.59 pg/mL
same,Ave AEB,[4],2.47 AEB
same,S/B,[4],50
same,Ave AEB,[5],8.49 AEB
same,S/B,[5],69.3
same,Ave AEB,[6],2.5 AEB
same,S/B,[6],42.3
same,Ave AEB,[7],17.2 AEB
same,S/B,[7],388
same,Ave AEB,[8],30.7 AEB
same,S/B,[8],384
same,Ave AEB,[9],19.6 AEB
same,S/B,[9],333
same,Ave AEB,[10],0.737 AEB
same,S/B,[10],7.1
same,AEB Rep1,[11],7.94 AEB
same,AEB Rep2,[11],5.08 AEB
same,Ave AEB,[11],6.51 AEB
same,S/B,[11],288
same,Ave AEB,[12],1.65 AEB
same,S/B,[12],90
same,Estimated LLOQ,[13],0.321 pg/mL
same,LOD,[13],0.117 pg/mL
same,AEB Rep1,[14],9.19 AEB
same,AEB Rep2,[14],9.19 AEB
same,Ave AEB,[14],9.19 AEB
same,S/B,[14],377
same,AEB Rep1,[15],0.146 AEB
same,AEB Rep2,[15],0.143 AEB
same,Ave AEB,[15],0.144 AEB
same,S/B,[15],5.93
same,Ave AEB,[16],4.24 AEB
same,S/B,[16],235
same,Ave AEB,[17],1.02 AEB
same,S/B,[17],93.1
same,Ave AEB,[18],3.06 AEB
same,S/B,[18],279
same,Ave AEB,[19],0.395 AEB
same,S/B,[19],21.9
same,Ave AEB,[20],0.02 AEB
same,S/B,[20],1.82
same,Ave AEB,[21],0.341 AEB
same,S/B,[21],31.1
same,Ave AEB,[22],0.0324 AEB
same,S/B,[22],1.79
same,Ave AEB,[23],0.0631 AEB
same,S/B,[23],5.87
same,Ave AEB,[24],0.023 AEB
same,S/B,[24],1.27
same,Ave AEB,[25],0.0296 AEB
same,S/B,[25],1.63
